Where “and” joins values, the source holds several entries; their conditions need not be identical. Identical values can stand only once. Entries after “also recorded” stand apart in the source; their conditions may differ. Ends that are not written are not given here.

Data on five molecules can be found in patent US8637043B2, “Compositions useful as ligands for the formyl peptide receptor like 1 receptor and methods of use thereof” (Chemocentryx, Inc., priority 2001, dated 2014).

Format in all cases: cell-based
For assay [1], the system named is human monocytes. Description: Calcium flux in human monocytes. Particulars: for calcium flux: human monocytes, Example 8; for calcium release: freshly prepared human monocytes, up to 250 nM. The protocol: Ca^2+ mobilization responses were performed using the intracellular ratiometric fluorescent dye, lndo-1. Cells were loaded with Indo-1/AM (3 μM; Molecular Probes, Eugene, Oreg.) in culture medium (45 min, 20° C., 10^7 cells/ml). After dye loading, cells were washed once with 10 ml PBS) and resuspended at 10^6 cell/ml in HBSS containing 1% FBS. Cytosolic [Ca^2+] release was determined using excitation at 350 nm using a Photon Technology International fluorimeter (excitation at 350 nm, ratioed dual emission at 400 and 490 nm).
The human recombinant chemokines, leukotactin, MlP-1α, three known CKβ8 variants CKβ8(1-99), CKβ8(25-99), CKβ8-1(1-116) and a novel NH2-terminal truncated form of CKβ8-1, CKβ8-1 (25-116) were obtained from R&D Systems (Minneapolis, Minn.). Human monocytes were generated from buffy coats (Stanford Blood Center, Palo Alto, Calif.) following a standard protocol. Briefly, PBMC were isolated by standard density gradient centrifugation (Ficoll-Paque-Plus, Pharmacia). Monocytes were purified using CD14 Microbeads (Miltenyi, Auburn, Calif.) magnetic positive selection. Human neutrophils were isolated from fresh peripheral blood from healthy individuals by gradient centrifugation on Ficoll-Hypaque (Hyclone, Calif.).
The activity of the CCL23 variants was tested on freshly prepared human monocytes and neutrophils using the calcium flux test described in Example 1.
Human monocytes were either generated from buffy coats (Stanford Blood Center, Palo Also, Calif.) or from fresh blood of healthy individuals following a standard protocol. Briefly, PBMC were isolated by a Ficoll-Paque gradient centrifugation (Ficoll-Paque-Plus, Pharmacia). Monocytes were purified by CD14 Microbeads (Miltenyi) magnetic positive selection. Human neutrophils were isolated from fresh blood by dextran sedimentation and gradient centrifugation Ficoll-Paque gradient centrifugation. All cells were washed and resuspended (1×10^7/ml) in RPMI medium with 10% FBS.
Ca^2+ mobilization responses were performed using an intracellular ratiometric fluorescent dye, Indo-1. Cells were loaded with Indo-1/AM (3 μM; Molecular Probes (Eugene, Oreg.)) in culture medium (45 min, 20° C., 10^7 cells/mi). After dye loading, cells were washed once (10 ml PBS) and resuspended at 10^6 cell/ml in HBSS containing 1% FBS. Cytosolic [Ca^2+] release was determined using excitation at 350 nm using a Photon Technology International fluorimeter (excitation at 350 nm, ratioed dual emission at 400 and 490 nm).
(A change in cytosolic calcium serves as a functional read-out for many receptors and channels.)

Another assay concerns the target T1, human FPRL1 (Homo sapiens, UniProt P25090).
T1 construct: Full length cDNA encoding FPRL1 was cloned, using the polymerase chain reaction (PCR), from genomic DNA isolated from undifferentiated HL-60 cells; expressed in transfected cells; linearized FPRL1/pcDNA3.1, electroporation
T1 sequence (P25090 1-351): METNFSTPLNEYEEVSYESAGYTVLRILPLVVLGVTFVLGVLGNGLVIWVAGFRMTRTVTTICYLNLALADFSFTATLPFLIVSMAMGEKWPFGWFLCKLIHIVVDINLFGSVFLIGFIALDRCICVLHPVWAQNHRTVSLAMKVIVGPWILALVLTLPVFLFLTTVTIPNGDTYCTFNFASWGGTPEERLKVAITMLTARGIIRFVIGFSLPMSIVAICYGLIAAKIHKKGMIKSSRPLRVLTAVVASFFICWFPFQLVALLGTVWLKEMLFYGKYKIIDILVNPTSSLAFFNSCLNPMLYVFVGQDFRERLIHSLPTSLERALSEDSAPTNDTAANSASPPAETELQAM
Description: Migration of FPRL1-L1.2 cells. The conditions noted are these: for migration of FPRL1 expressing cells: FPRL1-L1.2 cells, ChemoTx. The protocol:
(§1) Migration assays were performed on monocytes and neutrophils. Human monocytes and neutrophils (prepared as in Exampe 2) were harvested and resuspended in chemotaxis medium (CM). The CM consisted of Hank's buffered salt solution (Gibco, Mass.) containing CaCl2 (1 mM) and MgSO4 (1 mM) with added 0.1% BSA (Sigma, St. Louis, Mo.). The assays were performed in 96-well ChemoTx® microplates (Neuroprobe, Mass.). Leukotactin, MlP-1α and chemokines (CKβ8(1-99), CKβ8(25-99), CKβ8-1(1-116) or CKβ8-1(25-116), prepared as in Example 1) were added to the lower wells (final volume 29 μL), and 20 μL of cell suspension (5×10^6 cells/mL for monocytes; 2.5×10^6 cells/mL for neutrophils) added to the polycarbonate filters (5 μm pore size for monocytes; 3 μm pore size for neutrophils). After incubation for 90 min (37° C., 100% humidity, 5% CO2), cells were removed from the upper surface of the filter by scraping. Cells that migrated into the lower chamber were quantified using the Quant cell proliferation assay kit (Molecular Probes, Oreg.).
The ability of CKβ8-1 (25-116) to elicit the migration of the FPRL1 expressing cells was examined. Test conditions were as in Example 5.
The chemotactic activity of chemokines (CKβ8(1-99) and CKβ8(25-99), SHAAGtides (SEQ ID NO:1 and SEQ ID NO:2) and W peptides 1 and 2 (obtained as in Example 6) on FPRL1-L1.2 cells was determined in migration assays. The chemokines were prepared as in Example 1. The SHAAGtide sequences SEQ ID NO:1 and SEQ ID NO:2 were prepared as in Example 8. FPRL1-L1.2 cells were prepared as in Example 6.
The migration assays were performed in 96-well ChemoTx® microplates (Neuroprobe) using the protocol described in Example 5.

In assay [2] the test system is human monocytes. Description: Migration assay (ChemoTx), human monocytes. Particulars: 90 min, 1-100 nM. The protocol: as §1
The chemotactic activity on human monocytes and neutrophils of chemokines: CKβ8(1-99), CKβ8(25-99), CKβ8(1-116) and CKβ8(25-116); W peptides 1 and 2 and the SHAAGtide sequences SEQ ID NO:1 and SEQ ID NO:2 was determined in migration assays. The above peptides were prepared as in previous examples. The migration assays were performed in 96-well CHEMOTX® microplates (Neuroprobe) using the protocol described in Example 5.

The subject of another assay is human neutrophils. Briefly: Migration assay (ChemoTx), human neutrophils. Particulars: 90 min, 100 nM. The method, then:
as §1, with “Leukotactin, MlP-1α and chemokines (CKβ8(1-99), CKβ8(25-99), CKβ8-1(1-116) or CKβ8-1(25-116), prepared as in Example 1) were added to the lower wells (final volume 29 μL), and 20 μL of cell suspension (5×10^6 cells/mL for monocytes; 2.5×10^6 cells/mL for neutrophils) added to the polycarbonate filters (5 μm pore size for monocytes; 3 μm pore size for neutrophils).” left out
The above peptides were prepared as in previous examples.

Consider MLWRRKIGPQMTLSHAAY [SEQ ID NO: 6], for which the calcium flux entry in the assay on human monocytes [1] was “robust calcium flux”.

MLWRRKIGPQMTLSHAAG [SEQ ID NO: 1]: the “migration of FPRL1 expressing cells” value on human FPRL1 is listed as “migrated the transfectants”. In addition, the calcium flux result in the assay with human monocytes [1] was “robust calcium flux”. The migration of monocytes result with human monocytes [2] is “produced migration”. The migration of neutrophils result with human neutrophils is “produced migration”.

B1: CKβ8(25-99): known truncated CKβ8 variant, human recombinant chemokine from R&D Systems (protein, listed as Homo sapiens)
chain: RFHATSADCCISYTPRSIPCSLLESYFETNSECSKPGVIFLTKKGRRFCANPSDKQVQVCMRMLKLDTRIKTRKN
As for B1, the calcium release result in the assay with human monocytes [1] was “slightly higher calcium stimulation”. In addition, the migration of monocytes entry in the assay on human monocytes [2] is on record as “moderate activity”.

B2: CKβ8-1(25-116): novel NH2-terminal truncated form of CKβ8-1, SEQ ID NO: 16, human recombinant chemokine (protein, listed as Homo sapiens)
chain: MLWRRKIGPQMTLSHAAGFHATSADCCISYTPRSIPCSLLESYFETNSECSKPGVIFLTKKGRRFCANPSDKQVQVCMRMLKLDTRIKTRKN
As for B2, the “migration of FPRL1 expressing cells” value with human FPRL1 was “migrated the transfectants”; with human FPRL1 (listed as CKβ8-1 (25-116)), “migrated in a bell-shaped dose-dependent manner; also recorded: higher than observed with the synthetic peptides WKYMVm and WKYMVM”. Further, the EC50 with human FPRL1 (FPRL1 expressing L1.2 cells, read-out: half-maximal cell migration) was 30 nM. Further, in the assay with human monocytes [1], the calcium release entry is listed as “unique calcium flux with extended calcium release”. Besides, the calcium flux entry in the assay on human monocytes [1] is recorded as “robust calcium flux”. Moreover, the “maximal receptor stimulation compared with leukotactin” value in the assay on human monocytes [1] (monocytes, 100 nM) is recorded as “at least two fold higher”. The migration of monocytes result with human monocytes [2] was “dramatically higher activity than the other three variants at 100 nM and 1 and 10 nM was very similar to the other variants and produced migration”. Moreover, the migration of neutrophils entry in the assay on human neutrophils was “produced migration”; with human neutrophils (listed as CKβ8-1 (25-116)) it was “robust response”.

B3: CKβ8-1(1-116): alternatively spliced form of CKβ8, 116 amino acids, human recombinant chemokine (protein, listed as Homo sapiens)
chain: RVTKDAETEFMMSKLPLENPVLLDMLWRRKIGPQMTLSHAAGFHATSADCCISYTPRSIPCSLLESYFETNSECSKPGVIFLTKKGRRFCANPSDKQVQVCMRMLKLDTRIKTRKN
For B3, the calcium release entry in the assay on human monocytes [1] is “poor activity”. For the same molecule, the migration of monocytes entry in the assay with human monocytes [2] was “moderate activity”.
